# Measured values: US20220226473A1, “Nucleic acid nanocarrier drug and preparation method thereof, pharmaceutical composition and application thereof” (BAI YAO ZHI DA (BEIJING) NANOBIO TECHNOLOGY CO., LTD., priority 2018, published 2022)
# Several values for one entry are separate records, joined by “and”; a condition that tells them apart may be missing. Identical values can stand only once. Oligonucleotides are written 5' to 3', each unit as a sugar letter and its base; * is a phosphorothioate linkage, no mark a phosphodiester; rarer units and linkages stand in square brackets, end groups in braces. Plain capitals give the bases only. {Biotin} = biotin attached at the strand's 3'-end (Bio); d = 2'-deoxy (DNA)
# Tests used:
# Assay type in all cases: physicochemical
# [1] = Electric potential (zeta potential) measurement of self-assembly products; conditions: result over 3 detections
# Procedure: Measurement method: preparing a potential sample (the self-assembly product is dissolved in ultrapure water) and putting into a sample pool, opening a sample pool cover of an instrument, and placing the instrument;
# opening software, clicking a menu MeasUre€ManUal, so a manual measurement parameter setting dialog box appears;
# setting a software detection parameter;
# and then clicking Ok to complete the settings, after a measurement dialog box appears, clicking start to start.
# and then clicking Ok to complete the settings, after a measurement dialog box appears, clicking Start to start.
# Measurement method: preparing a potential sample (the self-assembly product is dissolved in ultrapure water) and putting into a sample pool, opening a sample pool cover of an instrument, and placing the instrument:
# Measurement result potential detection results of the 7 groups of the extension fragment deformation+core short-sequence RNA nanoparticles at 25 DEG C. are as follows:
# setting a software detection parameter; and then
# clicking Ok to complete the settings, after a measurement dialog box appears, clicking Start to start.
# Measurement result potential detection results of the 7 groups of the extension fragment deformation+core short-sequence DNA nanoparticles at 25 DEG C. are as follows: […]
# [2] = Particle size measurement (DLS hydrodynamic size); conditions: for Mean particle size (nm): DLS hydrodynamic size
# Excerpt: 1. Preparing a potential sample (conventional-sequence DNA self-assembly product D-7) and putting into a sample pool, opening a sample pool cover of an instrument, and placing the instrument;
# 2. opening software, and clicking a menu, so a manual measurement parameter setting dialog box appears;
# 3. setting a software detection parameter; and then
# 4. clicking Ok to complete the settings, when a measurement dialog box appears, clicking Start to start, a DLS measurement value result of a hydrodynamic size of the self-assembly product D-7 is shown below in Table 40: […]
# [3] = TM value detection by solubility curve method (SYBR Green I); conditions: RNA nanoparticles; temperature corresponding to ½ RFUmax in 20 to 90 DEG C.
# Procedure: A solubility curve method is used to detect TM values of the 7 groups of the extension fragment deformation+core short-sequence RNA nanoparticles, and the samples are consistent with the potential samples.
# (1) After the sample is diluted with ultrapure water, 5 μg of the diluted sample is mixed with 2 μL of SYBR Green I dye (diluted by 1:200), a final volume is 20 μL, and the dilution concentration is as follows:
# (2) It is incubated for 30 min in the dark at a room temperature; and
# (3) On-machine detection is performed, a program is set to start at 20 DEG C., the temperature rises per second from 0.1 DEG C. to 95 DEG C., and reading is performed every 5 s.
# Due to the particularity of the RNA samples, a temperature corresponding to ½ RFUmax in a range of 20 to 90 DEG C. is used as a sample Tm value in this test.
# A solubility curve method is used to detect TM values of the 7 groups of the extension fragment deformation+core short-sequence DNA nanoparticles, and the samples are consistent with the potential samples.
# (1) After the sample is diluted with ultrapure water, 5 μg of the diluted sample is mixed with 2 μL of SYBR Green I dye (diluted by 1:200). a final volume is 20 μL, and the dilution concentration is as follows: […]
# [4] = Drug loading rate of nucleic acid nanoparticles (chemical loading, absorbance standard curve); set-up: unit not given here; conditions: chemical loading method of Embodiment 5
# Excerpt: According to the chemical loading method (unless otherwise specified, the method is the same as that of Embodiment 5) of Embodiment 5, the RNA nanoparticles formed by the self-assembly of the previous R-15, R-16, R-17, R-18, R-19, R-20 and R-21 in Embodiment 9, and the DNA nanoparticles formed by the self-assembly of the D-8, D-9, D-10, D-11, D-12, D-13 and D-14 in Embodiment 10 are respectively used as doxorubicin loading carriers, doxorubicin loading rates measured are respectively as follows:
# According to the chemical loading method (unless otherwise specified, the method is the same as that of Embodiment 5) of Embodiment 5, the DNA nanoparticles formed by the self-assembly of the previous D-10 and D-14 in Embodiment 10 are used as a daunorubicin loading carrier.
# According to a chemical loading method of Embodiment 5 (unless otherwise specified, the method is the same as that of Embodiment 5, the same molar number of the epirubicin is used as a loading amount), nucleic acid nanoparticles (a molecular weight is 29550, it is similar to the RNA nanoparticles in Embodiment 1, and a difference is that a fluorescent label on a c-strand is Cy5) are used as a carrier, and respectively loaded with: epirubicin, methotrexate, pirarubicin, daunorubicin, […], 10-hydroxycamptothecin, aspirin and gemcitabine.
# Herein, when a standard curve is drawn, the absorbance of the above drugs on the microplate reader is measured respectively. The absorbance of the epirubicin, methotrexate, pirarubicin, daunorubicin, […], 10-hydroxycamptothecin, aspirin and gemcitabine is respectively detected at the following wavelengths: 492 nm, 303 nm, 492 nm, 492 nm, 265 nm, 384 nm, 225 nm and 268 nm. The standard curves obtained correspondingly are respectively shown in FIG. 48a, FIG. 49, FIG. 50sa, FIG. 51, FIG. 52, FIG. 53, FIG. 54a and FIG. 55. […]
Molecule,"Potential ZP, Experiment result ([1]; sample in ultrapure water)",other results
"D-6: conventional-sequence DNA nanoparticle without target head, strands SEQ ID NO: 114-116 (nucleic acid, three-strand DNA nanoparticle) chain 1: dC*dG*dC*dGdCdGdCdCdCdAdGdCdAdGdCdGdTdTdCdGdGdGdGdCdGdC*dC*dG*dC chain 2: dG*dC*dG*dGdCdGdCdCdCdCdGdTdTdCdGdGdCdCdGdGdCdAdGdGdC*dG*dG*dC chain 3: dG*dC*dC*dGdCdCdAdGdCdCdGdGdCdCdCdAdTdAdGdCdGdCdTdGdGdGdCdGdC*dG*dC*dG",−31.90 mV (±0.2 mV),
"D-2: conventional-sequence DNA nanoparticle with EGFRapt target head, strands SEQ ID NO: 102-104 (nucleic acid, three-strand DNA nanoparticle with an EGFR aptamer part) chain 1: dC*dG*dC*dGdCdGdCdCdCdAdGdCdAdGdCdGdTdTdCdGdCdGdGdGdCdGdGdCdGdGdCdCdTdTdAdGdTdAdAdCdGdTdGdCdTdTdTdGdAdTdGdTdCdGdAdTdTdCdGdAdCdAdGdGdA*dG*dG*dC chain 2: dC*dG*dC*dCdGdCdCdCdGdCdGdTdTdCdGdCdCdGdCdCdAdGdCdC*dG*dC*dC chain 3: dG*dG*dC*dGdGdCdAdGdGdCdGdGdCdCdAdTdAdGdCdGdCdTdGdGdGdCdGdC*dG*dC*dG",−36.47 mV (±0.67 mV),
"R-8: conventional-sequence RNA nanoparticle with extension fragments, strands SEQ ID NO: 76-78, C/U 2′F modified (nucleic acid, 2'-fluoro at CU, RNA at AG, backbone not given here; three-strand RNA nanoparticle used as drug carrier) chain 1: CGCGCGCCCAGGAGCGUUGGCGGGCGGCG chain 2: CGCCGCCCGCCUUCGCCGCCAGCCGCC chain 3: GGCGGCAGGCGGCCAUAGCCCUGGGCGCGCG",−17.43 mV (±1.33 mV),
"R-11: conventional-sequence RNA nanoparticle, strands SEQ ID NO: 85-87, C/U 2′F modified (nucleic acid, 2'-fluoro at CU, RNA at AG, backbone not given here; three-strand RNA nanoparticle used as drug carrier) chain 1: CGCGCGCCCAGGAGCGUUGGCCCGCGGCG chain 2: CGCCGCGGGCCUUCGGGGCCAGCCGCC chain 3: GGCGGCAGGCCCCCAUAGCCCUGGGCGCGCG",−29.13 mV (±3.13 mV),
"R-10: conventional-sequence RNA nanoparticle, strands SEQ ID NO: 82-84, C/U 2′F modified (nucleic acid, 2'-fluoro at CU, RNA at AG, backbone not given here; three-strand RNA nanoparticle used as drug carrier) chain 1: CGCGCGCCCACGAGCGUUGCGGGGCGGCG chain 2: CGCCGCCCCGCUUCGCCGCCAGCCGCC chain 3: GGCGGCAGGCGGCCAUAGCCGUGGGCGCGCG",−10.87 mV (±0.47 mV),
"R-9: conventional-sequence RNA nanoparticle, strands SEQ ID NO: 79-81, C/U 2′F modified (nucleic acid, 2'-fluoro at CU, RNA at AG, backbone not given here; three-strand RNA nanoparticle used as drug carrier) chain 1: CGCGCGCCCAGCAGCGUUCGCGGGCGGCG chain 2: CGCCGCCCGCGUUCGCCGCCAGCCGCC chain 3: GGCGGCAGGCGGCCAUAGCGCUGGGCGCGCG",−18.20 mV (±1.3 mV),
"R-13: conventional-sequence RNA nanoparticle, strands SEQ ID NO: 91-93, C/U 2′F modified (nucleic acid, 2'-fluoro at CU, RNA at AG, backbone not given here; Strands self-assemble into an RNA nanoparticle carrier) chain 1: CGCGCGCCCAGCAGCGUUCGGGGCGCCGC chain 2: GCGGCGCCCCGUUCGGCCGGCAGGCGGC chain 3: GCCGCCAGCCGGCCCAUAGCGCUGGGCGCGCG",−15.45 mV (±5.81 mV),
"D-7: conventional-sequence DNA nanoparticle without target head, strands SEQ ID NO: 117-119 (nucleic acid, three-strand DNA nanoparticle) chain 1: dC*dG*dC*dGdCdGdCdCdCdAdCdGdAdGdCdGdTdTdGdCdGdGdGdCdGdC*dC*dG*dC chain 2: dG*dC*dG*dGdCdGdCdCdCdGdCdTdTdCdGdGdCdGdGdCdAdGdGdC*dG*dG*dC chain 3: dG*dC*dC*dGdCdCdAdGdCdCdGdCdCdCdAdTdAdGdCdCdGdTdGdGdGdCdGdC*dG*dC*dG",−32.20 mV (±0.0.5 mV),"Particle size Z-Ave, Experiment result ([2]; result over 3 detections, DLS): 12.33 d.nm (±1.57 d.nm); Particle size Z-Ave ([2]; single detection (detection times 1-3), DLS): 10.76 nm·days and 13.9 nm·days and 10.36 nm·days"
"R-15: extension fragment deformation+core short-sequence RNA nanoparticle, SEQ ID NO: 120-122, a-strand 3′ biotin, 2′F (nucleic acid, chain 1: 2'-fluoro at CU, RNA at AG, 3' {Biotin}, backbone not given here; chain 2: 2'-fluoro at CU, RNA at AG, backbone not given here; chain 3: 2'-fluoro at CU, RNA at AG, backbone not given here; three-strand RNA nanoparticle) chain 1: GCGGCGAGCGGCGAGGAGCGUUGGGGCCGGAGGCCGG chain 2: CCGGCCUCCGGCCCCUUCGGGGCCAGCCGCC chain 3: GGCGGCAGGCCCCCAUAGCCCUCGCCGCUCGCCGC",,"Potential ZP, Experiment result ([1]; at 25 DEG C.): −23.23 mV; TM value (° C.) [3]: 57.5 °C; Mean particle size (nm) [2]: 6.808 nm; doxorubicin loading rate [4]: 20.5"
"R-16: extension fragment deformation+core short-sequence RNA nanoparticle, SEQ ID NO: 123-125, 3′ biotin, 2′F (nucleic acid, chain 1: 2'-fluoro at CU, RNA at AG, 3' {Biotin}, backbone not given here; chain 2: 2'-fluoro at CU, RNA at AG, backbone not given here; chain 3: 2'-fluoro at CU, RNA at AG, backbone not given here; three-strand RNA nanoparticle) chain 1: GCGGCGAGCGGCGAGCAGCGUUCGGGCCGGAGGCCGG chain 2: CCGGCCUCCGGCCCGUUCGCCGCCAGCCGCC chain 3: GGCGGCAGGCGGCCAUAGCGCUCGCCGCUCGCCGC",,"Potential ZP, Experiment result ([1]; at 25 DEG C.): −20.93 mV; TM value (° C.) [3]: 53.8 °C; Mean particle size (nm) [2]: 6.978 nm; doxorubicin loading rate [4]: 29.4"
"R-14: conventional-sequence RNA nanoparticle carrying survivin siRNA, strands SEQ ID NO: 94-96, C/U 2′F modified (nucleic acid, chain 1: DNA at T, 2'-fluoro at CU, RNA at AG, backbone not given here; chain 2: 2'-fluoro at CU, RNA at AG, backbone not given here; chain 3: 2'-fluoro at CU, RNA at AG, backbone not given here; three-strand RNA nanoparticle carrying a survivin siRNA fragment) chain 1: CGCGCGCGAGCGUUGCAAUGACAGAUAAGGAACCUGCUTT chain 2: GGCAGGUUCCUUAUCUGUCAAAGCUUCGGCGGCAGC chain 3: GCAGCCGCCCAUAGCCGCGCGCG",−23.53 mV. ± 2.33 mV,
"R-12: conventional-sequence RNA nanoparticle, strands SEQ ID NO: 88-90, C/U 2′F modified (nucleic acid, 2'-fluoro at CU, RNA at AG, backbone not given here; three-strand RNA nanoparticle used as drug carrier) chain 1: CGCGCGCCCAGCAGCGUUCGCCCCGCCGC chain 2: GCGGCGGGGCGUUCGGCGGCAGGCGGC chain 3: GCCGCCAGCCGCCCAUAGCGCUGGGCGCGCG",−10.86 mV (±3.27 mV),
